How the values were obtained:
Settings in all cases: tags: American Diagnostica 4500PC/4900PC, E. coli expressed
[1] = target: T1, TFPI (tissue factor pathway inhibitor, full-length) (Homo sapiens, UniProt P10646 SEQ:1-276); assay: competition; meets binding-competition criterion; CAT no
Protocol: (§1) Each molecule was evaluated for binding to tissue factor pathway inhibitor (TFPI) in a binding-competition assay. For these experiments, 10 nM human TFPI (American Diagnostica, Stamford, Conn., catalog #4500PC) was incubated with trace amounts of radiolabeled ARC17480 and 5000 nM, 1666.67 nM, 555.56 nM, 185.19 nM, 61.73 nM, 20.58 nM, 6.86 nM, 2.29 nM, 0.76 nM or 0.25 nM of unlabeled competitor aptamer. ARC17480 was included as a competitor in every experiment as a control. For each molecule, the percentage of radiolabeled ARC17480 bound at each competitor aptamer concentration was used for analysis. The percentage of radiolabeled ARC17480 bound was plotted as a function of aptamer concentration and fit to the equation y=(max/(1+x/IC₅₀))+int, where y=the percentage of radiolabeled ARC17480 bound, x=the concentration of aptamer, max=the maximum radiolabeled ARC17480 bound, and int=the y-intercept, to generate an IC₅₀ value for binding-competition. The IC₅₀ of each aptamer was compared to the IC₅₀ of ARC17480 that was evaluated in the same experiment. A substitution was considered tolerated in the binding-competition assay if the IC₅₀ of that molecule was not more than 5-fold greater than that of ARC17480 evaluated in the same experiment. Tolerated substitutions are indicated in Table 38 as meeting the assay criteria (“yes”) or not meeting the assay criteria (“no”).

[2] = target: T1, TFPI (tissue factor pathway inhibitor, …); assay: competition; meets binding-competition criterion
Protocol: as §1

[3] = target: T1, TFPI (tissue factor pathway inhibitor, …); assay: competition; meets binding-competition criterion; remark: listed apart in the source
Protocol: (§2) The substituted ARC17480 molecules were assayed for binding and function. The assays used for this evaluation were the calibrated automated thrombogram (CAT) assay, a dot-blot binding-competition assay and a FXa activity assay. The results of these assays are summarized in Table 40 and depicted in FIG. 147. A mutation was considered tolerated for activity if it met the criteria of at least two of the three assays that were carried out. Mutations that are tolerated (“yes”) and not tolerated (“no”) are identified in Table 40. The experimental details and the criteria used for each assay are described in the following paragraphs. The molecules described in this example were first tested in the CAT assay and the dot-blot binding-competition assay. In most cases, molecules were only tested in the FXa assay if there was a discrepancy between the results in the CAT assay and the dot-blot binding-competition assay.
(§3) Each molecule was evaluated for binding to tissue factor pathway inhibitor (TFPI) in a binding-competition assay. For these experiments, 10 nM human TFPI (American Diagnostica, Stamford, Conn., catalog #4900PC) was incubated with trace amounts of radiolabeled ARC17480 and 5000 nM, 1666.67 nM, 555.56 nM, 185.19 nM, 61.73 nM, 20.58 nM, 6.86 nM, 2.29 nM, 0.76 nM or 0.25 nM of unlabeled competitor aptamer. ARC17480 was included as a competitor in every experiment as a control. For each molecule, the percentage of radiolabeled ARC17480 bound at each competitor aptamer concentration was used for analysis. The percentage of radiolabeled ARC17480 bound was plotted as a function of aptamer concentration and fit to the equation y=(max/(1+x/IC₅₀))+int, where y=the percentage of radiolabeled ARC17480 bound, x=the concentration of aptamer, max=the maximum radiolabeled ARC17480 bound, and int=the y-intercept, to generate an IC₅₀ value for binding-competition. The IC₅₀ of each aptamer was compared to the IC₅₀ of ARC17480 that was evaluated in the same experiment. A mutation was considered tolerated in the binding-competition assay if the IC₅₀ of that molecule was not more than 5-fold greater than that of ARC17480 evaluated in the same experiment. Tolerated mutations are indicated in Table 40 as meeting the assay criteria (“yes”) or not meeting the assay criteria (“no”).

[4] = target: T1, TFPI (tissue factor pathway inhibitor, …); assay: competition; meets binding-competition criterion; CAT and FXa no
Protocol: as §2
Each molecule was evaluated for binding to tissue factor pathway inhibitor (TFPI) in a binding-competition assay. For these experiments, 10 nM human TFPI (American Diagnostica, Stamford, Conn., catalog #4900PC) was incubated with trace amounts of radiolabeled ARC17480 and 5000 nM, 1666.67 nM, 555.56 nM, 185.19 nM, 61.73 nM, 20.58 nM, 6.86 nM, 2.29 nM, 0.76 nM or 0.25 nM of unlabeled competitor aptamer. ARC17480 was included as a competitor in every experiment as a control. For each molecule, the percentage of radiolabeled ARC17480 bound at each competitor aptamer concentration was used for analysis. […] The IC₅₀ of each aptamer was compared to the IC₅₀ of ARC17480 that was evaluated in the same experiment. A mutation was considered tolerated in the binding-competition assay if the IC₅₀ of that molecule was not more than 5-fold greater than that of ARC17480 evaluated in the same experiment. […]

[5] = target: T1, TFPI (tissue factor pathway inhibitor, …); assay: competition; dot-blot
Protocol: as §2, §3

[6] = target: T1, TFPI (tissue factor pathway inhibitor, …); assay: competition; dot-blot; FXa assay criterion not met
Protocol: Each molecule was evaluated for binding to tissue factor pathway inhibitor (TFPI) in a binding-competition assay. For these experiments, 10 nM human TFPI (American Diagnostica, Stamford, Conn., catalog #4500PC) was incubated with trace amounts of radiolabeled ARC17480 and 5000 nM, 1666.67 nM, 555.56 nM, 185.19 nM, 61.73 nM, 20.58 nM, 6.86 nM, 2.29 nM, 0.76 nM or 0.25 nM of unlabeled competitor aptamer. ARC17480 was included as a competitor in every experiment as a control. For each molecule, the percentage of radiolabeled ARC17480 bound at each competitor aptamer concentration was used for analysis. The percentage of radiolabeled ARC17480 bound was plotted as a function of aptamer concentration and fit to the equation y=(max/(1+x/IC₅₀))+int, where y=the percentage of radiolabeled ARC17480 bound, x=the concentration of aptamer, max=the maximum radiolabeled ARC17480 bound, and int=the y-intercept, to generate an IC₅₀ value for binding-competition. The IC₅₀ of each aptamer was compared to the IC₅₀ of ARC17480 that was evaluated in the same experiment. A substitution was considered tolerated in the binding-competition assay if the IC₅₀ of that molecule was not more than 5-fold greater than that of ARC17480 evaluated in the same experiment. Tolerated substitutions are indicated in Table 37 as meeting the assay criteria (“yes”) or not meeting the assay criteria (“no”).

T1 sequence (P10646 29-304): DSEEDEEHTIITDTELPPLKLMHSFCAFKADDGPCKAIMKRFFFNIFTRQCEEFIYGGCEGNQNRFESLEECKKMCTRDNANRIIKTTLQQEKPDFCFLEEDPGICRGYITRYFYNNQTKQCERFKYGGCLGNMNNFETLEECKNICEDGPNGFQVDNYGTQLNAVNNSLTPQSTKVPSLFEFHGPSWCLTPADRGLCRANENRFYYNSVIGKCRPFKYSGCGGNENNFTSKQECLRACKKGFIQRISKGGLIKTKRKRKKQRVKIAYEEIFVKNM

B1: ARC33122 (mixed)
RNA: GGAAUUACUUGGCUCGUUAGGUGCGUAUAUA
modifications: 2'-OMe A/G/U, 2'-deoxy C, 3' idT
With B1 the binding signal [1] was ≤ 5 fold IC50 of ARC17480.

B2: ARC33900 (mixed)
RNA: UUACUUGGCUCGUUAGGUGCGUAUA
modifications: 2'-OMe A/G/U, 2'-deoxy C, 3' idT
With B2 the binding signal [2] was ≤ 5 fold IC50 of ARC17480.

B3: ARC33907 (mixed)
RNA: GGAAUACUUGGCUCGUUAGGUGCGUAUAUA
modifications: 2'-OMe A/G/U, 2'-deoxy C, 3' idT
For B3, the binding signal [2] was ≤ 5 fold IC50 of ARC17480.

B4: ARC33167 (mixed)
RNA: GGAAUAUACUUGGCUCGUCAGGUGCGUAUAUA
modifications: 2'-OMe A/G/U and mC19, other C 2'-deoxy, 3' idT
For B4, the binding signal [3] was ≤ 5 fold IC50 of ARC17480.

B5: ARC33155 (mixed)
RNA: GGAAUACACUUGGCUCGUUAGGUGCGUAUAUA
modifications: 2'-OMe A/G/U and mC7, other C 2'-deoxy, 3' idT
B5 was tested, and the binding signal [4] was ≤ 5 fold IC50 of ARC17480.

B6: ARC33149 (mixed)
RNA: UGAAUAUACUUGGCUCGUUAGGUGCGUAUAUA
modifications: 2'-OMe A/G/U, 2'-deoxy C, 3' idT
With B6 the binding signal [3] was ≤ 5 fold IC50 of ARC17480.

B7: ARC34859 (XNA)
RNA: GCAAUAUACUUGGCUCGUUAGGUGCGUAUAUA
modifications: 2'-OMe except dC9, dC14, dC16, dC25; 3' idT
With B7 the binding signal [5] was no more than 5 fold IC50 vs ARC17480.

B8: ARC34857 (XNA)
RNA: CGAAUAUACUUGGCUCGUUAGGUGCGUAUAUA
modifications: 2'-OMe except dC9, dC14, dC16, dC25; 3' idT
B8 was tested, and the binding signal [5] was no more than 5 fold IC50 vs ARC17480.

B9: ARC33152 (mixed)
RNA: GGAUUAUACUUGGCUCGUUAGGUGCGUAUAUA
modifications: 2'-OMe A/G/U, 2'-deoxy C, 3' idT
In the case of B9, the binding signal [3] is reported as ≤ 5 fold IC50 of ARC17480.

B10: ARC33156 (mixed)
RNA: GGAAUAUUCUUGGCUCGUUAGGUGCGUAUAUA
modifications: 2'-OMe A/G/U, 2'-deoxy C, 3' idT
B10 was tested, and the binding signal [4] was ≤ 5 fold IC50 of ARC17480.

B11: ARC34865 (XNA)
RNA: GGAAGAUACUUGGCUCGUUAGGUGCGUAUAUA
modifications: 2'-OMe except dC9, dC14, dC16, dC25; 3' idT
B11 gave a binding signal [5] of no more than 5 fold IC50 vs ARC17480.

B12: ARC33180 (mixed)
RNA: GGAAUAUACUUGGCUCGUUAGGUGCGUAUAUU
modifications: 2'-OMe A/G/U, 2'-deoxy C, 3' idT
For B12, the binding signal [3] was ≤ 5 fold IC50 of ARC17480.

B13: ARC33178 (mixed)
RNA: GGAAUAUACUUGGCUCGUUAGGUGCGUAUUUA
modifications: 2'-OMe A/G/U, 2'-deoxy C, 3' idT
For B13, the binding signal [3] was ≤ 5 fold IC50 of ARC17480.

B14: ARC33150 (mixed)
RNA: GUAAUAUACUUGGCUCGUUAGGUGCGUAUAUA
modifications: 2'-OMe A/G/U, 2'-deoxy C, 3' idT
B14 was tested, and the binding signal [3] was ≤ 5 fold IC50 of ARC17480.

B15: ARC18545 (XNA)
RNA: GGAAUAUACUUGGCUCGUUAGGUGCGUAUAUA
modifications: 2'-OMe except dC9, dC25; 2'-OMe C14 and C16; 3' idT
For B15, the binding signal [6] was no more than 5 fold IC50 vs ARC17480.

B16: ARC34861 (XNA)
RNA: GGCAUAUACUUGGCUCGUUAGGUGCGUAUAUA
modifications: 2'-OMe except dC9, dC14, dC16, dC25; 3' idT
B16 was tested, and the binding signal [5] was no more than 5 fold IC50 vs ARC17480.

B17: ARC34863 (XNA)
RNA: GGACUAUACUUGGCUCGUUAGGUGCGUAUAUA
modifications: 2'-OMe except dC9, dC14, dC16, dC25; 3' idT
Binder B17 has a binding signal [5] of no more than 5 fold IC50 vs ARC17480.
